Biological target: the molecule itself
Test: SEC-MALS

Row | Protein | stoichiometry N
1 | SmF-GFP (natural protein, S. cerevisiae, UniProt P54999 1-86, looked up) MSESSDISAMQPVNPKPFLKGLVNHRVGVKLKFNSTEYRGTLVSTDNYFNLQLNEAEEFVAGVSHGTLGEIFIRCNNVLYIRELPN | 14
2 | BsHfq-GFP (natural protein, Bacillus subtilis, UniProt O31796 1-73, looked up) MKPINIQDQFLNQIRKENTYVTVFLLNGFQLRGQVKGFDNFTVLLESEGKQQLIYKHAISTFAPQKNVQLELE | 6

Reference: doi:10.1101/2020.01.19.911149 (bioRxiv, 2020)
